Target: T1, interaction between FVIII light chain and LRP cluster II (Homo sapiens, UniProt P00451)
T1 construct: Recombinant LRP clusters II or IV (1 pmol/well) were adsorbed onto microtiter wells; made in house; host or cells: LRP cluster II: BHK cells; FVIII light chain: plasma-derived
T1 sequence (P00451 1668-2351): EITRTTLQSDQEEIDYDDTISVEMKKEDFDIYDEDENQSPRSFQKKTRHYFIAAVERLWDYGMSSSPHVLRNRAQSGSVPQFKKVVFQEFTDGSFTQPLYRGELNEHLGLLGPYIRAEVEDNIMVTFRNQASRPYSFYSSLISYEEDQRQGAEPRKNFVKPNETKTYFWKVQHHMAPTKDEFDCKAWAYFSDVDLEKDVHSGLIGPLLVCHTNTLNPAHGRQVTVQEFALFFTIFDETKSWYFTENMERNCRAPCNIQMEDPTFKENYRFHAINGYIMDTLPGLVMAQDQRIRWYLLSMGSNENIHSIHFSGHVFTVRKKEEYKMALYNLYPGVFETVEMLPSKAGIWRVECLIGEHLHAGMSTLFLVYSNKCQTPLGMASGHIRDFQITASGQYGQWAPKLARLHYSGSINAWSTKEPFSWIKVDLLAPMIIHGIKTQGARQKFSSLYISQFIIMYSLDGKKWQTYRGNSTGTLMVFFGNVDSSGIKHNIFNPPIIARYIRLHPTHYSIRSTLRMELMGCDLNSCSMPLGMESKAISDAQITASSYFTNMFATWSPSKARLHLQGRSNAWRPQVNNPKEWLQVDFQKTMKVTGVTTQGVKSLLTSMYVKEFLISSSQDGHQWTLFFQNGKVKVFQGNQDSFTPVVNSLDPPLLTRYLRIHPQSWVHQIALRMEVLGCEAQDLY
Test: Solid-phase competition: FVIII light chain binding to immobilized LRP cluster II
Conditions: FVIII light chain 25 nM
Procedure: FIG. 4. Effect of scFv antibody fragments on the interaction between FVIII light chain and LRP. A, FVIII light chain (LCh) (25 nM) was incubated with immobilized LRP cluster II (1 pmol/well) in a volume of 50 μl in 150 mM NaCl, 5 mM CaCl2, 1% (w/v) HSA, 0.1% Tween® 20, and 50 mM Tris (pH 7.4) in the presence of various concentrations (0-100 nM) of scFv KM41 (closed circles) or scFv KM36 (open circles) for 2 h at 37° C. After washing with the same buffer, bound FVIII light chain was quantified by incubation with peroxidase-conjugated anti-FVIII antibody CLB-CAg 12 for 15 min at 37° C. Residual binding is expressed as the percentage of binding in the absence of competitor and is corrected for nonspecific binding (less than 5% relative to binding to LRP cluster II-immobilized wells). Data represent the mean±S.D. of three experiments. B, FVIII light chain (50 nM) was incubated with immobilized LRP (16 fmol/mm^2) as described in the legend of FIG. 1. Binding was assessed in the absence (curve 1) or in the presence of increasing concentrations of scFv KM41 (20, 60, 300, 500 nM, curves 2-5, respectively). Complexes were allowed to form for 30 min before SPR analysis.
FIG. 5. Effect of scFv KM33 on the interaction between FVIII light chain and LRP. FVIII light chain (LCh) (25 nM) was incubated with immobilized LRP cluster II (1 pmol/well) in a volume of 50 μl in 150 mM NaCl, 5 mM CaCl2, 1% (w/v) HSA, 0.1% Tween® 20, and 50 mM Tris (pH 7.4) in the presence of various concentrations (0-30 nM) of scFv KM36 (open circles) or scFv KM33 (closed circles) for 2 h at 37° C. After washing with the same buffer, bound FVIII Light chain was quantified by incubation with peroxidase-conjugated anti-FVIII antibody CLB-CAg 12 for 15 min at 37° C. Residual binding is expressed as the percentage of binding in the absence of competitor and is corrected for nonspecific binding (less than 5% relative to binding to cluster-coated wells). Data represent the mean±S.D. of three experiments.
Recombinant LRP clusters II or IV (1 pmol/well) were adsorbed onto microtiter wells in 50 mM NaHCO3 (pH 9.8) in a volume of 50 μl for 16 h at 4° C. Wells were blocked with 2% (w/v) HSA, 150 mM NaCl, 5 mM CaCl2, and 50 mM Tris (pH 7.4) in a volume of 200 μl for 1 h at 37° C. After three rapid washes (less than 5 seconds each) with 150 mM NaCl, 5 mM CaCl2, 0.1% (v/v) Tween® 20, and 50 mM Tris (pH 7.4), FVIII light chain or its derivatives were incubated at various concentrations in a volume of 50 μl in a buffer containing 150 mM NaCl, 5 mM CaCl2, 1% (w/v) HSA, 0.1% (v/v) Tween® 20, and 50 mM Tris (pH 7.4) for 2 h. at 37° C. Bound ligand was detected by incubating with peroxidase-conjugated monoclonal antibody CLB-CAg 12 in the same buffer for 15 min at 37° C. […] In competition experiments, FVIII light chain (25 nM) was incubated with wells containing immobilized LRP clusters, either in the presence or absence of serial dilutions of competitor in a volume of 50 μl for 2 h at 37° C. Residual FVIII binding was detected as described above. Data were corrected for binding to empty microtiter wells, which was less than 5% relative to binding to wells containing immobilized LRP clusters.
(Note to Table II: Effect of FVIII a3-A3-C1 fragment derived synthetic peptides on the interaction between FVIII light chain and LRP cluster II. FVIII light chain (25 nM) was incubated with immobilized LRP cluster II (1 pmol/well) in a volume of 50 μl in 150 mM NaCl, 5 mM CaCl2, 1% (w/v) HSA, 0.1% Tween® 20, and 50 mM Tris (pH 7.4) in the presence or absence of various concentrations of synthetic peptide (0-1 mM) for 2 h at 37° C. After washing with the same buffer, bound FVIII light chain was quantified by incubation with peroxidase-conjugated anti-FVIII antibody CLB-CAg 12 for 15 min at 37° C. Half-maximum inhibition constants (IC50) represent the mean values±S.D. of three experiments.)

Effect on binding of FVIII light chain to immobilized LRP cluster II: inhibited the binding
B1: scFv KM41: scFv antibody fragment directed against FVIII region Arg^1803-Lys^1818 (protein)
scFv: QVQLLQSAADVKKPGASVKVSCTASGYIFTSYDIDWVRQATGQGLEWMGWMNPNSGNAGFAQKFKGRLTLTRDTSTSTAYMELRRLESEDTAVYYCARSTPHSYSGSGLPPTSDSWGQGTLVTVSSGGGGSGGGGSGGGGSEIVLTQSPGTLSLSPGERATLSCRASQSVSSSFLGWYQQKPGQAPRLLIYGASSRATGIPDRFSGSGSGTDFTLTISRLEPEDFAVYYCQQYGISPLTFGGGTKLEIKRAAAEQKLISEEDLNGAAHHHHHH
